Results published in article PMC3098868.

Assays:
[1] = molecular target: human insulin receptor, isoform B (holoreceptor) (human) (UniProt P06213); assay: radioligand binding; scintillation proximity assay (SPA): competition of [125I]TyrA14-labelled insulin binding to solubilized holoreceptor, with IR-specific antibody 83-7; analogues taken directly from yeast supernatant after conversion; four-parameter logistic model; affinity relative to human insulin within the same plate [IC50(insulin)/IC50(analogue) x 100%]; near physiological pH
[2] = molecular target: human insulin receptor, isoform A (holoreceptor) (human) (UniProt P06213); assay: as above
[3] = molecular target: human insulin receptor, isoform B (holoreceptor) (human) (UniProt P06213); assay: radioligand binding; scintillation proximity assay (SPA): competition of [125I]TyrA14-labelled insulin binding to solubilized holoreceptor, with IR-specific antibody 83-7; purified ligand (human insulin standard, tracer, purified unglycosylated [A8H, B25N]); near physiological pH

Substance | relative affinity (IC50 insulin/IC50 analogue x 100%) (% of human insulin) [1] | relative affinity (IC50 insulin/IC50 analogue x 100%) (% of human insulin) [2] | fold difference in relative binding potency, IR-B over IR-A [3]
[A8H, B25Y, B27E] desB30 insulin analogue (ligand) | 459 | 714 | 
[A8H, B25H, B27E] desB30 insulin analogue (ligand) | 140 | 67 | 
[A8H, B25A, B27E] desB30 insulin analogue (ligand) | 24 | 10 | 
[A8H] desB30 insulin analogue (ligand) | 308 | 308 | 
[B25N] desB30 insulin analogue (ligand) | 8 | 4 | 
[A8H, B25N, B27D] desB30 insulin analogue (ligand) | 38 | 10 | 
[A8H, B25N, B27E] desB30 insulin analogue (ligand) | 57 | 15 | 
[A8H, B25H, B27D] desB30 insulin analogue (ligand) | 82 | 43 | 
[A8H, B25N] desB30 insulin analogue (ligand) | 44 | 22 | 2 fold
